Source: patent US8840891 (RSR, dated 2014)
Each block holds one molecule with its values, some of them ahead of it.

Key:
[1] = molecular target: human TSHR, wild type, expressed on CHO cells (human) (UniProt P16473); assay: cell-based or functional assay
[2] = molecular target: human TSHR (wild type) expressed in CHO cells (human) (UniProt P16473); assay: cell-based or functional assay
[3] = molecular target: human TSHR, wild type, expressed on CHO cells (human) (UniProt P16473); assay: cell-based or functional assay; remark: listed apart in the source
[4] = molecular target: wild type human TSHR (human) (UniProt P16473); assay: cell-based or functional assay
[5] = molecular target: human TSHR expressed on CHO cells (human) (UniProt P16473); assay: cell-based or functional assay
[6] = molecular target: T1, TSHR coated onto tubes (human, UniProt P16473 21-764, limits assumed); assay: TSHR coated tubes, competitor 125I-M22 IgG
T1 construct: whole entry named; also called TSHR coated tubes; thyrotropin receptor

[7] = molecular target: T1, TSHR coated onto tubes; assay: TSHR coated tubes, competitor 125I-5C9 IgG
[8] = molecular target: T1, TSHR coated onto tubes; assay: TSHR coated tubes, competitor 125I-TSH

- cyclic AMP; Exp 1; recombinant human TSH 100 ng/mL only [1]: 12.7 pmol/mL
- cyclic AMP; Exp 2; recombinant human TSH 100 ng/mL only [1]: 16.7 pmol/mL
- cyclic AMP; Exp 3; recombinant human TSH 100 ng/mL only [1]: 26.4 pmol/mL
Molecule: recombinant human TSH (NIBSC reference preparation 94/674) (from UniProt P01215 25-116; P01222 21-138) (ligand)

- cyclic AMP production; M22 Fab 3 ng/mL only (fmol/cell well) [2]: 9430
- cyclic AMP; Exp 1; M22 3 ng/mL [3]: 49.1 pmol/mL
- cyclic AMP; Exp 2; M22 3 ng/mL [3]: 68.3 pmol/mL
- cyclic AMP; Exp 3; M22 0.3 ng/mL [3]: 21.8 pmol/mL
- cyclic AMP; Exp 4; M22 0.3 ng/mL [3]: 31.1 pmol/mL
Molecule: M22 Fab

- cyclic AMP; Example 1; 5C9 F(ab′)2 10 µg/mL + TSH (fmol/cell well) [2]: 916
- cyclic AMP; Example 1; 5C9 F(ab′)2 100 µg/mL + TSH (fmol/cell well) [2]: 877
- cyclic AMP; Example 1; 5C9 F(ab′)2 100 µg/mL only (fmol/cell well) [2]: 204
- cyclic AMP; Example 2; 5C9 F(ab′)2 10 µg/mL + TSH (fmol/cell well) [2]: 1330
- cyclic AMP; Example 2; 5C9 F(ab′)2 100 µg/mL + TSH (fmol/cell well) [2]: 1060
- cyclic AMP; Example 2; 5C9 F(ab′)2 100 µg/mL only (fmol/cell well) [2]: 414
Molecule: 5C9 F(ab′)2

- cyclic AMP; Exp 1; native human TSH 100 ng/mL only [1]: 36.1 pmol/mL
- cyclic AMP; Exp 2; native human TSH 100 ng/mL only [1]: 40.8 pmol/mL
- cyclic AMP; Exp 3; native human TSH 100 ng/mL only [1]: 31.1 pmol/mL
Molecule: native human TSH (NIBSC reference preparation 81/565) (from UniProt P01215 25-116; P01222 21-132) (ligand)

- cyclic AMP; 100 µg/mL 9D33 IgG only (fmol/cell well) [4]: 534
- cyclic AMP; T21 + 0.001 µg/mL 9D33 IgG (fmol/cell well) [4]: 10200
- cyclic AMP; T21 + 0.01 µg/mL 9D33 IgG (fmol/cell well) [4]: 10800
- cyclic AMP; T21 + 0.1 µg/mL 9D33 IgG (fmol/cell well) [4]: 8720
- cyclic AMP; T21 + 1 µg/mL 9D33 IgG (fmol/cell well) [4]: 1380
- cyclic AMP; T21 + 10 µg/mL 9D33 IgG (fmol/cell well) [4]: 605
- cyclic AMP; T21 + 100 µg/mL 9D33 IgG (fmol/cell well) [4]: 442
- cyclic AMP production; 9D33 IgG 100 µg/mL + M22 Fab 3 ng/mL (fmol/cell well) [2]: 1050
- cyclic AMP production; 9D33 IgG 100 µg/mL + pTSH 3 ng/mL (fmol/cell well) [2]: 2220
- cyclic AMP production; 9D33 IgG 100 µg/mL only (fmol/cell well) [2]: 626
- Cyclic AMP, serum T1 + 0.001 µg/mL 9D33 IgG (fmol/cell well) [5]: 21600
- Cyclic AMP, serum T1 + 0.01 µg/mL 9D33 IgG (fmol/cell well) [5]: 19900
- Cyclic AMP, serum T1 + 0.1 µg/mL 9D33 IgG (fmol/cell well) [5]: 17900
- Cyclic AMP, serum T1 + 1 µg/mL 9D33 IgG (fmol/cell well) [5]: 4990
- Cyclic AMP, serum T1 + 10 µg/mL 9D33 IgG (fmol/cell well) [5]: 1460
- Cyclic AMP, serum T3 + 0.001 µg/mL 9D33 IgG (fmol/cell well) [5]: 12200
- Cyclic AMP, serum T3 + 0.01 µg/mL 9D33 IgG (fmol/cell well) [5]: 12200
- Cyclic AMP, serum T3 + 0.1 µg/mL 9D33 IgG (fmol/cell well) [5]: 12000
- Cyclic AMP, serum T3 + 1 µg/mL 9D33 IgG (fmol/cell well) [5]: 7380
- Cyclic AMP, serum T3 + 10 µg/mL 9D33 IgG (fmol/cell well) [5]: 4260
- Cyclic AMP, serum T6 + 0.001 µg/mL 9D33 IgG (single determination) (fmol/cell well) [5]: 10300
- Cyclic AMP, serum T6 + 0.01 µg/mL 9D33 IgG (fmol/cell well) [5]: 10300
- Cyclic AMP, serum T6 + 0.1 µg/mL 9D33 IgG (fmol/cell well) [5]: 8700
- Cyclic AMP, serum T6 + 1 µg/mL 9D33 IgG (fmol/cell well) [5]: 5450
- Cyclic AMP, serum T6 + 10 µg/mL 9D33 IgG (fmol/cell well) [5]: 2260
- Cyclic AMP, serum T19 + 0.001 µg/mL 9D33 IgG (fmol/cell well) [5]: 7090
- Cyclic AMP, serum T19 + 0.01 µg/mL 9D33 IgG (mean of duplicate) (fmol/cell well) [5]: 5760
- Cyclic AMP, serum T19 + 0.1 µg/mL 9D33 IgG (mean of duplicate) (fmol/cell well) [5]: 2390
- Cyclic AMP, serum T19 + 1 µg/mL 9D33 IgG (fmol/cell well) [5]: 404
- Cyclic AMP, serum T19 + 10 µg/mL 9D33 IgG (fmol/cell well) [5]: 448
- Cyclic AMP, serum T20 + 0.001 µg/mL 9D33 IgG (fmol/cell well) [5]: 7510
- Cyclic AMP, serum T20 + 0.01 µg/mL 9D33 IgG (fmol/cell well) [5]: 5390
- Cyclic AMP, serum T20 + 0.1 µg/mL 9D33 IgG (fmol/cell well) [5]: 5360
- Cyclic AMP, serum T20 + 1 µg/mL 9D33 IgG (mean of duplicate) (fmol/cell well) [5]: 980
- Cyclic AMP, serum T20 + 10 µg/mL 9D33 IgG (fmol/cell well) [5]: 204
- % inhib of 125I-M22 IgG binding at 0.01 µg/mL [6]: 13%
- % inhib of 125I-M22 IgG binding at 0.1 µg/mL [6]: 27%
- % inhib of 125I-M22 IgG binding at 1 µg/mL [6]: 48%
- % inhib of 125I-M22 IgG binding at 10 µg/mL [6]: 60%
- % inhib of 125I-M22 IgG binding at 100 µg/mL [6]: 61%
- % inhib of 125I-5C9 IgG binding at 0.01 µg/mL [7]: 13%
- % inhib of 125I-5C9 IgG binding at 0.1 µg/mL [7]: 29%
- % inhib of 125I-5C9 IgG binding at 1 µg/mL [7]: 48%
- % inhib of 125I-5C9 IgG binding at 10 µg/mL [7]: 60%
- % inhib of 125I-5C9 IgG binding at 100 µg/mL [7]: 70%
- % inhib of 125I-TSH binding at 0.01 µg/mL [8]: 8%
- % inhib of 125I-TSH binding at 0.1 µg/mL [8]: 31%
- % inhib of 125I-TSH binding at 1 µg/mL [8]: 55%
- % inhib of 125I-TSH binding at 10 µg/mL [8]: 65%
- % inhib of 125I-TSH binding at 100 µg/mL [8]: 69%
B1: 9D33 IgG (antibody, V domains shown)
VH: DVQIQQPGTELVKPGASVRLSCKASGYTFTTYWMHWVKQRPGQGLEWIGEIDPSDSYTNYNQKFKGKATLTVDKSSSTAYMHLSSLTSEDSAVYYCSRNYGSGYYFDYWGQGTTLTVSS
VL: GVEMTQSPAIMSASPGEKVTMTCSASSSVSYMHWYQQKSGTSPKRWIYDTSKLASGVPARFSGSGSGTSYSLTISSMETEDAATYYCQQWSSNPWTFGGGTKLEIK
